From patent publication US20250352661A1 (MYTHIC THERAPEUTICS, published 2025) come the findings set out here.

Residue numbers refer to the chain shown, from its start. Numbers in names are those of the source.

B1: MYT9730 (antibody, V domains shown)
VH: EVQLVESGGGLVQPGGSLRLSCTASGFSFSSSHWICWVRQAPGKGLEWVGCIYAGSIGSTYYASWAKGRFTISRDTSKNTVYLQMNSLRAEDTAVYYCARAPNDIYNYYFNLWGQGTLVTVSS
VL: EIVMTQSPSTLSASVGDRVIITCQASANIYNYLAWYQQKPGKAPKLLIYYASTLASGVPSRFSGSGSGAEFTLTISSLQPDDFATYYCQSGYVSKSSTFGQGTKLTVL
notes: Humanized 29F1 with VL E27A; captured by anti-human Fc sensor
B2: MYT9738 (antibody, V domains shown)
VH: B1 VH
VL: B1 VL with A27E, Y50E
notes: Humanized 29F1 with VL Y50E; captured by anti-human Fc sensor
B3: MYT9734 (antibody, V domains shown)
VH: B1 VH
VL: B1 VL with A27E, N31E
notes: also called hu29F1 VL N31E
B4: MYT9736 (antibody, V domains shown)
VH: B1 VH
VL: B1 VL with A27E, L33E
notes: also called hu29F1 VL L33E
B5: MYT9744 (antibody, V domains shown)
VH: B1 VH
VL: B1 VL with A27E, S56E
notes: Humanized 29F1 with VL S56E; captured by anti-human Fc sensor
B6: MYT9732 (antibody, V domains shown)
VH: B1 VH
VL: B1 VL with A27E, I29E
notes: also called hu29F1 VL I29E
B7: MYT9754 (antibody, V domains shown)
VH: B1 VH
VL: B1 VL with A27E, T98E
notes: also called hu29F1 VL T98E
B8: MYT9739 (antibody, V domains shown)
VH: B1 VH
VL: B1 VL with A27E, A51E
notes: Humanized 29F1 with VL A51E; captured by anti-human Fc sensor
B9: MYT9752 (antibody, V domains shown)
VH: B1 VH
VL: B1 VL with A27E, S96E
notes: also called hu29F1 VL S96E
B10: MYT9753 (antibody, V domains shown)
VH: B1 VH
VL: B1 VL with A27E, S97E
notes: also called hu29F1 VL S97E
B11: MYT9745 (antibody, V domains shown)
VH: B1 VH
VL: B1 VL with A27E, Q89E
notes: also called hu29F1 VL Q89E
B12: MYT9741 (antibody, V domains shown)
VH: B1 VH
VL: B1 VL with A27E, T53E
notes: Humanized 29F1 with VL T53E; captured by anti-human Fc sensor
B13: MYT9740 (antibody, V domains shown)
VH: B1 VH
VL: B1 VL with A27E, S52E
notes: Humanized 29F1 with VL S52E; captured by anti-human Fc sensor

For the assay, the target named is T1, Human LRRC15 Protein, His Tag, Acro Biosystems (human, UniProt Q8TF66 22-538, limits assumed).
T1 construct: not shown: His tag
T1 sequence (looked up): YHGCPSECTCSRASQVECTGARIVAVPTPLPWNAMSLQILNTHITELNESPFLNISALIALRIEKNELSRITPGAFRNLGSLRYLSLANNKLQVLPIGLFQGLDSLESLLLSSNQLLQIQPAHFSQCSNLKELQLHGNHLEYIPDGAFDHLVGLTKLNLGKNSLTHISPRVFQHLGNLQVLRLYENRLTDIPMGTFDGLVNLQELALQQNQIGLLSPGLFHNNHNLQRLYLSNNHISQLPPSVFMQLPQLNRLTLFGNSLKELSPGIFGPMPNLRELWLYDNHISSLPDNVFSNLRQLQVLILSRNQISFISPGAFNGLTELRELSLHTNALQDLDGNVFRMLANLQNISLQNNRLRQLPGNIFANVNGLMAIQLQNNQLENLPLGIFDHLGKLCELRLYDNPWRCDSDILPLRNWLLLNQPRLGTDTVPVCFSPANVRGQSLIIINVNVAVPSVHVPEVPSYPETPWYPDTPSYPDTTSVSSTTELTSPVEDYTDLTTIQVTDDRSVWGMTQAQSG
Description: BLI; dissociation pH 7.4 black, pH 5.4 grey [D00028 FIG. 7B]. (BLI is a label-free optical method that tracks binding on a fibre tip over time.)
Take B1: the binding result is on record as “binds”.

As to B2, the binding result is on record as “binds”. B3: the binding result is recorded as “binds”. For B4 the value was “binds”. For B5 the value was “binds”.

With B6, the binding result was “binds”.

Turning to B7, the binding result is “binds”.

Turning to B8, the binding result is given as “binds”. For B9 the value was “binds”; for B10, “binds”; for B11, “binds”. Regarding B12, the binding result is listed as “binds”. For B13 the value was “binds”.
